These results are taken from patent US20120090043A1, “TARGETS FOR RETROVIRUS ASSOCIATED DISEASES” (priority 2009, published 2012).

Experiment [1] has as its system HTLV-1 LTR promoter transactivation by HTLV-1 Tax. In words: Transactivation assay, HTLV-1 LTR luciferase reporter with HTLV-1 Tax. The class given is cell-based. The conditions noted are these: HEK293 cells co-transfected with pHTLV1LTR-Luc, HTLV-1 Tax and the human ORF; relative luciferase activity 24 h post-transfection; positive if >=2 or <=0.5 and p<0.05.
The subject of experiment [2] is HIV-1 LTR promoter transactivation by HIV-1 Tat. Nature of the experiment: Transactivation assay, HIV-1 LTR luciferase reporter with HIV-1 Tat. The class given is cell-based. The following applies: HEK293 cells co-transfected with pHIV1LTR-Luc, HIV-1 Tat and the human ORF; relative luciferase activity 24 h post-transfection; positive if >=2 or <=0.5 and p<0.05. In a few lines: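 HEK293 cells (10^4) were calcium-phosphate co-transfected with the HIV-1 LTR-luciferase reporter plus HIV-1 Tat, or the HTLV-1 LTR-luciferase reporter plus HTLV-1 Tax, each with a human ORF expression plasmid. A hit required relative activity ≥2 or ≤0.5 with paired t-test p<0.05.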

B1: TSC22D4: human host interactor protein, Gene ID 81628, expressed from transfected ORF vector (protein)
chain: MSGGKKKSSFQITSVTTDYEGPGSPGASDPPTPQPPTGPPPRLPNGEPSPDPGGKGTPRNGSPPPGAPSSRFRVVKLPHGLGEPYRRGRWTCVDVYERDLEPHSFGGLLEGIRGASGGAGGRSLDSRLELASLGLGAPTPPSGLSQGPTSWLRPPPTSPGPQARSFTGGLGQLVVPSKAKAEKPPLSASSPQQRPPEPETGESAGTSRAATPLPSLRVEAEAGGSGARTPPLSRRKAVDMRLRMELGAPEEMGQVPPLDSRPSSPALYFTHDASLVHKSPDPFGAVAAQKFSLAHSMLAISGHLDSDDDSGSGSLVGIDNKIEQAMDLVKSHLMFAVREEVEVLKEQIRELAERNAALEQENGLLRALASPEQLAQLPSSGVPRLGPPAPNGPSV
As for B1, the HTLV_LTR transactiv. in experiment [1] was found to be 3.75 fold change. In experiment [2], the HIV_LTR transactiv. is given as 5.43 fold change.

B2: TFIP11: human host interactor protein, Gene ID 24144, expressed from transfected ORF vector (protein)
chain: MSLSHLYRDGEGRIDDDDDERENFEITDWDLQNEFNPNRQRHWQTKEEATYGVWAERDSDDERPSFGGKRARDYSAPVNFISAGLKKGAAEEAELEDSDDEEKPVKQDDFPKDFGPRKLKTGGNFKPSQKGFAGGTKSFMDFGSWERHTKGIGQKLLQKMGYVPGRGLGKNAQGIINPIEAKQRKGKGAVGAYGSERTTQSMQDFPVVDSEEEAEEEFQKELSQWRKDPSGSKKKPKYSYKTVEELKAKGRISKKLTAPQKELSQVKVIDMTGREQKVYYSYSQISHKHNVPDDGLPLQSQQLPQSGKEAKAPGFALPELEHNLQLLIDLTEQEIIQNDRQLQYERDMVVNLFHELEKMTEVLDHEERVISNLSKVLEMVEECERRMQPDCSNPLTLDECARIFETLQDKYYEEYRMSDRVDLAVAIVYPLMKEYFKEWDPLKDCTYGTEIISKWKSLLENDQLLSHGGQDLSADAFHRLIWEVWMPFVRNIVTQWQPRNCDPMVDFLDSWVHIIPVWILDNILDQLIFPKLQKEVENWNPLTDTVPIHSWIHPWLPLMQARLEPLYSPIRSKLSSALQKWHPSDSSAKLILQPWKDVFTPGSWEAFMVKNIVPKLGMCLGELVINPHQQHMDAFYWVIDWEGMISVSSLVGLLEKHFFPKWLQVLCSWLSNSPNYEEITKWYLGWKSMFSDQVLAHPSVKDKFNEALDIMNRAVSSNVGAYMQPGARENIAYLTHTERRKDFQYEAMQERREAENMAQRGIGVAASSVPMNFKDLIETKAEEHNIVFMPVIGKRHEGKQLYTFGRIVIYIDRGVVFVQGEKTWVPTSLQSLIDMAK
For the molecule B2, in experiment [1], the HTLV_LTR transactiv. was 0.45 fold change. In experiment [2], this molecule showed an HIV_LTR transactiv. of 0.19 fold change.

B3: C10orf3: human host interactor protein, Gene ID 55165, expressed from transfected ORF vector (protein)
chain: MSSRSTKDLIKSKWGSKPSNSKSETTLEKLKGEIAHLKTSVDEITSGKGKLTDKERHRLLEKIRVLEAEKEKNAYQLTEKDKEIQRLRDQLKARYSTTTLLEQLEETTREGERREQVLKALSEEKDVLKQQLSAATSRIAELESKTNTLRLSQTVAPNCFNSSINNIHEMEIQLKDALEKNQQWLVYDQQREVYVKGLLAKIFELEKKTETAAHSLPQQTKKPESEGYLQEEKQKCYNDLLASAKKDLEVERQTITQLSFELSEFRRKYEETQKEVHNLNQLLYSQRRADVQHLEDDRHKTEKIQKLREENDIARGKLEEEKKRSEELLSQVQFLYTSLLKQQEEQTRVALLEQQMQACTLDFENEKLDRQHVQHQLHVILKELRKARNQITQLESLKQLHEFAITEPLVTFQGETENREKVAASPKSPTAALNESLVECPKCNIQYPATEHRDLLVHVEYCSK
Take B3: the HTLV_LTR transactiv. in experiment [1] is 0.41 fold change. In experiment [2], this molecule yielded an HIV_LTR transactiv. of 2.79 fold change.

B4: ZNF614: human host interactor protein, Gene ID 80110, expressed from transfected ORF vector (protein)
chain: MIKTQESLTLEDVAVEFSWEEWQLLDTAQKNLYRDVMVENYNHLVSLGYQTSKPDVLSKLAHGQEPWTTDAKIQNKNCPGIGKVDSHLQEHSPNQRLLKSVQQCNGQNTLRNIVHLSKTHFPIVQNHDTFDLYRKNLKSSLSLINQKRRHGINNPVEFIGGEKTLLHGKHERTHTKTRFSENAKCIHTKFQVFKHQRTQKIEKPHACIECEQTFLRKSQLIYHENICIQENPGSGQCEKLSRSVLFTKHLKTNTTDKICIPNEYRKGSTVKSSLITHQQTHTEEKSYMCSECGKGFTMKRYLIAHQRTHSGEKPYVCKECGKGFTVKSNLIVHQRTHTGEKPYICSECGKGFTMKRYLVVHQRTHTGEKPYMCSECGKGFTVKSNLIVHQRSHTGEKSYICSECGKGFTVKRTLVIHQRTHTGEKSYICNECGKGFTTKRTLIIHQRTHTGEKPYECNECGKAFSQKICLIQHERCHTGKTPFVCTECGKSYSHKYGLITHQRIHTGEKPYECNECGKAFTTKSVLNVHQRTHTGERPYGCSDCEKAFSHLSNLVKHKKMHTREMGRISQVENSCNGESQLLPYK
For B4, the HTLV_LTR transactiv. in experiment [1] worked out at 5.24 fold change. For the same molecule, the HIV_LTR transactiv. in experiment [2] came to 0.28 fold change.
